Data published in patent US20200223915A1 (OSAKA UNIVERSITY, published 2020).

T1: wild-type human Claudin 6 protein (human, UniProt P56747 1-220)
T1 construct: Expressed on cells by retrovirus; Wording leaves open whether the entry is the protein or the DNA; also called hCLDN6
T1 sequence: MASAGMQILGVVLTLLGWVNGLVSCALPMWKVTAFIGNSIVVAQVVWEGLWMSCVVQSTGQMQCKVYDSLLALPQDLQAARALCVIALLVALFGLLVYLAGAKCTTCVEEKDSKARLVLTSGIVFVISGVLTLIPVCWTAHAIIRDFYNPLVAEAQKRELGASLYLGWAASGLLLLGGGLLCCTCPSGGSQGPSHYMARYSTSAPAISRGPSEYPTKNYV

T2: wild-type mouse Claudin 3 protein (mouse, UniProt Q9Z0G9 1-219)
T2 construct: Expressed on cells by retrovirus; Wording leaves open whether the entry is the protein or the DNA; also called mCLDN3
T2 sequence: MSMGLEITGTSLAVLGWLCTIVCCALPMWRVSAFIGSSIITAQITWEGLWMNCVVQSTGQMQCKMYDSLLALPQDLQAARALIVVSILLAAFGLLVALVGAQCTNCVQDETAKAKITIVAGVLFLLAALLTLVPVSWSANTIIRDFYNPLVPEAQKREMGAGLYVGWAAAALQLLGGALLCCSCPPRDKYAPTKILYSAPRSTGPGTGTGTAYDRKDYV

T3: wild-type human Claudin 7 protein (human, UniProt O95471 1-211)
T3 construct: Expressed on cells by retrovirus; Wording leaves open whether the entry is the protein or the DNA; also called hCLDN7
T3 sequence: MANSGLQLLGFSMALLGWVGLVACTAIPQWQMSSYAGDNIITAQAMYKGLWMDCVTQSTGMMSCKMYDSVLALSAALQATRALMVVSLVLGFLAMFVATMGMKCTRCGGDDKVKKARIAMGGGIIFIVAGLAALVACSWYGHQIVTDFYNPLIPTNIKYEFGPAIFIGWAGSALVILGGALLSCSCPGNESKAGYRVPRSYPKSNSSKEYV

T4: wild-type human Claudin 5 protein (human, UniProt O00501 1-218)
T4 construct: also called hCLDN5; CLDN 5
T4 sequence: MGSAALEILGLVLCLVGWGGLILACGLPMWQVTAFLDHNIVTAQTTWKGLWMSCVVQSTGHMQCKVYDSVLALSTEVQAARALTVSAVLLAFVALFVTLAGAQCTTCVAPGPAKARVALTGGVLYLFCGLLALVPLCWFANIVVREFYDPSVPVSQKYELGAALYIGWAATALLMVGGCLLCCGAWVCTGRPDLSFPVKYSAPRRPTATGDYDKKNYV

T5: wild-type rat Claudin 5 protein (rat, UniProt Q9JKD6 1-218)
T5 sequence: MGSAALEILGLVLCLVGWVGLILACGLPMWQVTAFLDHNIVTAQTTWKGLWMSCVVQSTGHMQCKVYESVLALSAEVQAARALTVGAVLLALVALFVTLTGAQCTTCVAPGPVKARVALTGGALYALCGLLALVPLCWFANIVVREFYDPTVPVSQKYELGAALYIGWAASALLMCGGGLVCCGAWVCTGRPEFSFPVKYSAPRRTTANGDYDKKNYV


Legend:
[1] = biological target: T1, wild-type human Claudin 6 protein; assay: FACS on Claudin-expressing cells
Description: (§1) The cells were washed three times with 0.2% BSA-TBS, and then mixed with 100 μL of a secondary antibody solution (FITC conjugated goat anti-mouse IgG+IgM in 1% BSA-PBS (1:400)), followed by a reaction at 4° C. for 1 hour. The cells were washed with 0.2% BSA-TBS, and FACS analysis (FACS caliber, BD Bioscience) was performed.

[2] = biological target: T2, wild-type mouse Claudin 3 protein; assay: FACS on Claudin-expressing cells
Description: as §1

[3] = biological target: T3, wild-type human Claudin 7 protein; assay: FACS on Claudin-expressing cells
Description: as §1

[4] = biological target: T4, wild-type human Claudin 5 protein; assay: FACS on human Claudin 5-expressing HT-1080 cells; 50% saturation of the MFI binding curve
Description: as §1

[5] = biological target: T5, wild-type rat Claudin 5 protein; assay: FACS on Claudin 5-expressing cells (species comparison)
Description: as §1
FIG. 5 illustrates histograms with the horizontal axis representing the fluorescence signal, and the vertical axis representing the cell count. FIG. 6 illustrates a comparison of the amino acid. sequences of Claudin 5 protein of different species.

binding result [1]	binding result [2]	binding result [3]	Kd [4] [nM]	binding result [5]	Binder
no binding (tested: 10 µg/mL)	no binding (tested: 10 µg/mL)	no binding (tested: 10 µg/mL)	6.9	no binding (tested: 10 µg/mL)	antibody 2B1 (antibody, IgG2a, V domains shown, also called antibody B) VH: QVQLQQPGAELVKPGASVKLSCKASGYTFTTFWIHWVKQRPGRGLEWIGRIAPYSGGTTYNEKFKSKATLTVDRPSTTAYMQLISLTSEDSAVYYCARWDFTYGSNLDYWGQGTTLTVSS VL: DIVMTQSQKFMSTSVGDRVSIPCKASQNVRTAVAWYQQKPGQSPKALIYLASNRHTGVPDRFTGSGSGTDFTLTISNVQSEDLADYFCLGHWDYPYTFGGGTKLEIKR
no binding (tested: 10 µg/mL)	no binding (tested: 10 µg/mL)	no binding (tested: 10 µg/mL)	7.3	no binding (tested: 10 µg/mL)	antibody 2B12 (antibody, IgG2a, V domains shown, also called antibody A) VH: QVQLQQSGAELARPGASVKLSCKASGYTFTRFGMSWVKQRTGQGLEWIGEIYPGSGDTYYSENFKGKATLTADKSSGTAYMELRSLTSEDSAVYFCARWGIYYGNPYAMDYWGQGTSVTVSS VL: DIVMTQAAPSVPVTPGESVSISCRSSKSLLHSNGNTYLYWFLQRPGQSPQLLIYRMSNLASGVPDRFSGSGSGTAFTLRISRVEAEDVGVYYCLQHLEYPFTFGSGTKLEIKR
